Test: soluble on expression in E. coli; label from the status in PepcDB or PDB records

Sequence | soluble on expression in E. coli
MSLELRPLHPLDGLLKFAGLARSTFYYQQKVLLVDDKYAGLKDLIQATFYEHKGRYGYRRITAALRRAGHLVNHKTVQKLMGQLGLKSLIRVKKYRSYKGETGKAAPNLLKRDFKAQYLNQKWATDVTEFKVGGQKLYLSPIMDLYSGEIISYAIARRPLYSMVDEMLEGAFKRLGPHEKPILHSDQGWQYRMPIYQRLLNENSIAASMSRKGNCYDNAAIESFFSTLKSEFFYLNKFNDLDELQAGIEEYIEYYNHSRIKLKLNGLSPVEYRMQAAKAAEGHHHHHH | not soluble
MSKLCKEFSLSATVKNISRFVDEEIYYTDTEERFNIPWRMCIAKCDDEFSLGLKCEKNNWDNREWSIETDWTMKLVSHNGKSLMESKKFTFNNSNIFDGGLNTSWDLLESDYVVDDSVVVEAHVKIIKITDLPCDEDEDSKTFLLSSTVRNISSIEEGDDYYTETTIRHNIPWRMQIKRDDGFFGLFLRCEKEDCEDPGKSWSIELDYELRLVSLNGQSLTFSDSDLFIYPSGEGFQKFMRWDDMEEKYMVNGSIIIEARGKITSLEESDDESSSENEEDDSSESHSENDSSSDNLEDEFSECVINVGGQNYTVKKQ | not soluble
GSARQQEIDMKRQQRFFRIPFIRPADQYKDPQNKKKGWWYAHFDGPWIARQMELHPDKPPILLVAGKDDMEMCELNLEETGLTRKRGAEILPRQFEEIWERCGGIQYLQSAIESRQARPTYATAMLQNLLKGSSGGSLVPR | soluble
GPGSMRKKSVQETDEVPNERLPHILSSSDDPTEVNKALVVLLRRLRAGAGEPISLSPATLSQLLRILVGRTDDAWLEVRKKIAFVFSELLSKDNADVLADALLYGRLHTTTSSEARASRIDFGGVDENSAPDPFTSLKKMKEILGKLAEAHGTVERCVPAADVFRTFLRLPALLEVIMSPEPLFDVEDNDGSAPAHHATKKRCFNDTCIGILCRSAQAYTTALCTETWRSLSTALCTNKALSAPLLLCYFNEFVGMFLGCLEGDNFVAKLHALELIDAILEDAAFLKARPKLAESPALLCALLPLTNSRSQHIRFLTFDAIKVFIAKGNKPAPIRYILYINRETLARYVEDYSPNEATIGKVLSAEKEKILRSLLSLEPLSHEEEVLLNASA | not soluble
MSLTITLRVLGTSVTLLESLRERAEQELGIKLVYQIHDVQTAQRIAVMQPDSYDLYDQWFHNVDFVWPARAIQPIDTRRIALWHEINDLPKRGRLRPTDQPGSGSVPSERLFVQHDGSLGSTVTERISMLPLTHNADSFAYRPERLPEGLSPADESWGWLLDSAWGGRIALQSDAAIGALDAALAVQGAGLAQFNDIGNMSIEEIDLLADVLVRKQQQGHFGAFWSDDEEAAELMLSPTIDIQSLWSPTLVRLHRAGVKYRVAVPKEGYRGWFGGLSLSRYAKGPVLDAAYAYLNWWLSGWPGAVMARQGYYIGNPARSRDHLSAAEWDYWYAGLPAREQLLGSDGLPLIDAGEIRDGGSYEERMGHIAVWNSVMNEHNYLVRRWSDILRASGKSSAKAREGHHHHHH | soluble
MAHHHHHHMPYNALVSSHLAELTLCKLAELMVPNDFNLFVLAIKDDLLSKALEDHSLFVFLSAAFVNAIIPKLKELKLEEDKDDSPHLCALRVRPHERPFKPRLLECLKDFKGKINAECRVLYKPEAKNFPLVDGFFFVESKPKIMVGLQMTTASEHHTIPSTVNLFKENMAKYFNGWEKFSRDMLWEIIYIQHADSTPLDGWQRCDYVNPRNKTDAENEIVAFWNGKVHQYQFVLTTEFVSKIREMKM | not soluble
MKHICLYFQIHQPFRLKRYRFFDIGNDHYYYDDFRNEEIMRRITQKCYLPANLLLKEIIAEHPEFRVAFSISGTALEQLESYSPEALDTFRDLAETGCVEFLAETYAHSLSSLYDPEEFYNQTMIHSRRMEELFGVKPRVLRNTELIFSDNIATQVAEMGFQGMLTEGAKHILGWKSPNYLYKAGSAPELSLLLRNPRLSDAISAMFTRYDWNEYPLTADKMIRWIEETPEEEQIFNLFMNYEVLGSLHPQESGIFDFFRALPSLAKKSEGVKFATPSELIESSSPVAKFSSIYPISWVGEEKDTGTWLGNVLQQGACDKLEQWGERVRMIDDQRMLQDWLYLQSADHFYYMKTRGGDAGNFSPYETPYDAFNNYMNVLSDFLLRVEARYPSTIENEELKALLTTIRNQDKQIKKLEETIKRQKTKTT | not soluble
MKVLFLTANEFEDVELIYPYHRLKEEGHEVYIASFERGTITGKHGYSVKVDLTFDKVNPEEFDALVLPGGRAPERVRLNEKAVSIARKMFSEGKPVASICHGPQILISAGVLRGRKGTSYPGIKDDMINAGVEWVDAEVVVDGNWVSSRVPADLYAWMREFVKLLK | soluble
MGSDKIHHHHHHMTVRDFHYYEPAEGHGLSHNPLNALVAPRPIGWISSRDAQGRVNLAPYSFFNAFNYDPPIIGFSSIAWKDSVQNASETREFTWNLVTRELGDQMNQTSSPLPHGEDEFQFAGLTAVAGRKVNVPRVGESRAAMECKVIDIVQFRNTAGEKVGGWLVLGEVVAVYIDKTLLKDGVYQTAEAYPIMRSGGLNDYVQVSPDNVFQIARLAGASSPSSHGKG | not soluble
MGSDKIHHHHHHMEHPENNEEYKGLVVNKGIEQPSSVNPYLKRKPKKRQLSVAEFVEGIVKGDVTILSQAVTLVESVKPEHQAVAQEVIEKCLPYSGNSIRVGISGVPGAGKSTSIDVFGLHVLEKGGKLAVLAIDPSSERSKGSILGDKTRMEQLSVHPQSFIRPSPSAGSLGGVARKTRETIVLCEAAGFDKIFVETVGVGQSETAVHSMVDFFLLIQLAGTGDELQGIKRGIMEMADGIVINKADGDNLEPAKLAASQFRNALHLFPAPESGWIPKVLTYSGFYNIGVKEIWDMVYEYIDFVKKNGYFDYRRNEQSKYWMYETINEQLRDSFYHNPRIEAMLQEKEQQVLQGNLTSFIAAKSLLDTYFDELKR | not soluble
MSLRINGQAELSGANTFLQAQVQLTGEVEIKLQKPLQLTAAKAATEIHLRIPDFVVWKDLFESTPFAVPAPLHVLTGDIELDVHAQLTDLDSPLQADATAQSRLSSKNQKLFVKATADLETLGKILKPRGLKVHADVVLQDVHLQAPPLRLAVPPQVLPDKRFVMRKDLDIIEEEKPAPTSRIPFELLWSVNIKTEKPVLISSNLLQSPVPVALDMQVQSDRKPQGKVMVQSFPFEFFRKKATVNNVDLIFHPDTVAPELSGKISYSNPEVNIRILLLGNTQRPIVNLESDPQLNQQQILSVLLFDKSLDELNEDEVNSTSNMSRAVSDGALGLFSLMFLSSTPIQSISYDPNSQSYTARMRLDDNTTFSMQSNMTEQRQFTLRRRLGGNWSVRTELSQEDSRADVVQTLLEWMRRFEGHHHHHH | not soluble
MGSDKIHHHHHHMRVLIINTSERIGGAAVAAGRLMESLKNNGIKAKMLVRDKQTDQISVVGLKGSWLHVWKFMWERIVIWKANRFKKNDLFAVDIANTGTDITSLPEFQQADVIHLHWINQGMLSLNTIRKILTSGKPVVWTMHDMWPCTGICHYARECKNYEQECHHCPYIYGGGGKKDLSTRIFRKKKEIYSQASITFVGCSRWLAEKAKVSGLLTGQTVISIPNAINTNLFKPHNKQEARRKCRLPQEGKLILFGSVKITDKRKGIDYLIEACKLLAEKHPEWKESLGVVVFGNQSQQLQDLIPFRVYPLPYIKNEHELVDIYNAVDLFAIPSLEENLPNMVMEAMSCGVPCVGFNTGGIPEMIDHLHNGYVAQRKSSEDLANGIHWVLTEPEYAELSAQACRKAIGNYSESIIAKKYTEVYNKITGKYA | not soluble
SLIDFHFHAPVKEFLDFLGEFGEPAIKYFNAKVEVKGLKETLDYYESFGIKRFVVLPIDSTTFLGRRIPNQVINLDDRIVKFISVDPSKPNADEELKRSIKEFEPVGVKLHPQLQGFHPLDERALKIYEIIDNHGLIVVFHTGTSGIGAGVKSSIRLDYGRPIYFDEIAVRFQNMKIILAHFGWPWTEEAIAIALHKPNVYLDLSGWAPRYIPQVIWSNAKRLSDKLLFGSDFPLIRPERWLEEFKSVNLSQDIKDKILKHNAEKLVKKS | soluble
MSLERQEHSPLILLGEDEKFQATIVKDVLERKNFDVRIAPNGKVAYEMFCENRLFQLVIVDVFMPVVDGLRSVKLIRQYESNHQIERCPIIICSGNESIIRSGNNSQDTGGDAFVSKPFRPSLIDLVYKLIGKKEGHHHHHH | not soluble
MIFMNMVNRERELQALKKRLSSNDLELIIIYGRRRIGKTFLIINAVNGYDFIYYLATEKNNLRKFKELTESKYEDIKYVKEDWEAIFHYLRDKIIIIDEFPYMIKEDESILSTFQKIVDETLKGSKTKLILLGSSISMMEDAISYKSPLYGRRTASIELKELKFKDLKGFNFSLIDAIHVYGFAGGVPFYLTKAKTPFLKWINAELKEVDSFIKDEIDFMLRYEFSEIGTYKEILHAISSGKNTLGEIKDFVRISGDVSSYLNKLEKIGIIGKEFPYKMKKGARYYIKDNFTLFWFTFIYPNLSLIEEGIYEIKEDEYNVYLGRIFEKIAREYVEDVYKVKVERLWFKDVEIDIYGDGIAGECKWSEGINGEKVLYELKRKVEDLGLDVKKYIIFAKSFSKTNEEAEFIDLKKLEQWYRTLEHHHHHH | soluble
AHHHHHHGSRIVLAYSGGLDTSVILKLMQEKLGAEVITVTVDVGQKDDFEKIEEKAYKFGAVKHYYIDAKEEFAENYVCKAIKANALYENAYPLSTALARPLIVEKLVEVAKKEGAGIIAHGCTGKGNDQVRFNLGIKALMPEAEILQPVAEWNLTRDWEMEYAKKHGIPVSDKIYSIDENIWGRSIEGGVLEDPSIEPPEEVFEWTVSIEKAPDKPEYVTIGFENGVPVSLNGEKMKLLELILKLNEIAGKHGVGRIDHIEDRSVGIKSREVYEAPAAVTLIKAHQDLEKLTLTKWVIEFKSIVDSKWSWLVYNGLWYEPLRLALEGFIDEAEKAVNGEVTVKLWKGNAIVVGRKSDNALYDVKMATYEKFSTFDQKLAKGFIELFGMQSVLAYNMLHGVHSTSNISEIKEAIKTLE | soluble
MDSRTKGKTVMEVGGDGVAVITLINPPVNSLSFDVLYNLKSNYEEALSRNDVKAIVITGAKGRFSGGFDISGFGEMQKGNVKEPKAGYISIDIITDLLEAARKPSVAAIDGLALGGGLELAMACHARISAPAAQLGLPELQLGVIPGFGGTQRLPRLVGLTKALEMILTSKPVKAEEGHSLGLIDAVVPPAELVTTARRWALDIVGRRKPWVSSVSKTDKLPPLGEAREILTFAKAQTLKRAPNMKHPLMCLDAIEVGIVSGPRAGLEKEAEVASQVVKLDTTKGLIHVFFSQRGTAKVPGVTDRGLVPRKIKKVAIIGGGLMGSGIATALILSNYPVILKEVNEKFLEAGIGRVKANLQSRVRKGSMSQEKFEKTMSLLKGSLDYESFRDVDMVIEAVIENISLKQQIFADLEKYCPQHCILASNTSTIDLNKIGERTKSQDRIVGAHFFSPAHIMPLLEIVRTNHTSAQVIVDLLDVGKKIKKTPVVVGNCTGFAVNRMFFPYTQAAMFLVECGADPYLIDRAISKFGMPMGPFRLCDLVGFGVAIATATQFIENFSERTYKSMIIPLMQEDKRAGEATRKGFYLYDDKRKAKPDPELKKYIEKARSISGVKLDPKLANLSEKDIIEMTFFPVVNEACRVFAEGIAVKAADLDIAGIMGMGFPPYRGGIMFWADSIGSKYIYSRLDEWSKAYGEFFKPCAFLAERGSKGVLLSAPVKQASSRL | soluble
ENVYGYLMKYTNLVTGWQYRFFVLNNEAGLLEYFVNEQSRNQKPRGTLQLAGAVISPSDEDSHTFTVNAASGEQYKLRATDAKERQHWVSRLQICTQHHTEAIGKNN | soluble
MGHHHHHHSHMCYNRESNFANQTIDFYCYTEYNGFMTTKGANVMTEVEMKEQVQEVLDKLRPFLLRDGGDCELVDVDEGIVKLRLLGACGSCPSSTITLKAGIERALLEEVPGVVEVEQVF | soluble
